# Assay results from paper PMC9482650, “Quantitative fragmentomics allow affinity mapping of interactomes” (Nature Communications, 2022).
# T1: PDZD2_2, O15018
# T1 sequence (O15018 329-429, limits assumed, looked up): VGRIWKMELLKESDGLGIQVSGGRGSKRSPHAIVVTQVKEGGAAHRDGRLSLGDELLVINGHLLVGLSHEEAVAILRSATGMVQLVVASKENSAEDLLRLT
# T2: PTPN13_1, Q12923
# T2 sequence (Q12923 1088-1188, limits assumed, looked up): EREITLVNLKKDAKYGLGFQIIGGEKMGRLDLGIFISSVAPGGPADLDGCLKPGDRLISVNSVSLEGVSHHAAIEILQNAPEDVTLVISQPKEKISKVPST
# T3: GRIP1_2, Q9Y3R0
# T3 sequence (Q9Y3R0 145-248, limits assumed, looked up): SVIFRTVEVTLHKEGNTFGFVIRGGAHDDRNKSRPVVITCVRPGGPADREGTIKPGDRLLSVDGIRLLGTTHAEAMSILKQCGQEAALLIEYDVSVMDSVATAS
# T4: PCLO, Q9Y6V0
# T4 sequence (Q9Y6V0 4491-4600, limits assumed, looked up): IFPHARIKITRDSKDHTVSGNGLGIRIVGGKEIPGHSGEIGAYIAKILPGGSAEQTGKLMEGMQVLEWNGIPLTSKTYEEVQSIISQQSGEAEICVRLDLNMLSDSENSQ
# T5: DFNB31_2, Q9P202
# T5 sequence (Q9P202 274-371, limits assumed, looked up): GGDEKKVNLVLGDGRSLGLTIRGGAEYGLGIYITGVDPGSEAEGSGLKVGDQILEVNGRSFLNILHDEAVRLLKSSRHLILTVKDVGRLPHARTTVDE
# T6: LRRC7, Q96NW7
# T6 sequence (Q96NW7 1440-1537, limits assumed, looked up): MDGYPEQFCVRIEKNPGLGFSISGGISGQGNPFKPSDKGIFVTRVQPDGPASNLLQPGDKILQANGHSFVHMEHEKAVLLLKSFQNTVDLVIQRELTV
# T7: SYNJ2BP, P57105
# T7 sequence (P57105 8-110, limits assumed, looked up): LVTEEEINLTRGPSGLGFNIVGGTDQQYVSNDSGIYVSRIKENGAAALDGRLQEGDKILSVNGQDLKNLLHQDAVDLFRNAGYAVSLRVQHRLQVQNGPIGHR
# T8: SNTG1, Q9NSN8
# T8 sequence (Q9NSN8 52-150, limits assumed, looked up): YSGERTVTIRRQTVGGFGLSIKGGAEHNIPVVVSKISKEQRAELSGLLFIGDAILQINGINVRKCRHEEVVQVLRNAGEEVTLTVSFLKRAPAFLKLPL
# T9: TIAM2, Q8IVF5
# T9 sequence (Q8IVF5 885-986, limits assumed, looked up): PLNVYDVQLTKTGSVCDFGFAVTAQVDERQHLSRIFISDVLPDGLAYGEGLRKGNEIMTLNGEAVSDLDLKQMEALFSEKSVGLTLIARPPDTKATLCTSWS
# T10: FRMPD1, Q5SYB0
# T10 sequence (Q5SYB0 52-145, limits assumed, looked up): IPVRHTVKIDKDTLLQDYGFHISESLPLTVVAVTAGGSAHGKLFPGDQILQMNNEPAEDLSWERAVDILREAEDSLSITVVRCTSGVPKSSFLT
# T11: PDZRN3_1, Q9UPQ7
# T11 sequence (Q9UPQ7 244-349, limits assumed, looked up): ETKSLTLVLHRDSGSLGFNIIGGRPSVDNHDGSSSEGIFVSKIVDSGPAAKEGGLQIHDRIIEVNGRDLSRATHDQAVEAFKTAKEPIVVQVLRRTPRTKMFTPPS
# T12: MPP2, Q14168
# T12 sequence (Q14168 180-250, limits assumed, looked up): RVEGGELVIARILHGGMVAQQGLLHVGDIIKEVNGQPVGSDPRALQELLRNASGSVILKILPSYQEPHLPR
# T13: TX1BP3, O14907
# T13 sequence (O14907 10-122, limits assumed, looked up): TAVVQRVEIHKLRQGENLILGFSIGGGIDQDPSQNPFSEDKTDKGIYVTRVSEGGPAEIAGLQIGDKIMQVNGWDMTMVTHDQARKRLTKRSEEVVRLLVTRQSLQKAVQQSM
# T14: DFNB31_1, Q9P202
# T14 sequence (Q9P202 135-233, limits assumed, looked up): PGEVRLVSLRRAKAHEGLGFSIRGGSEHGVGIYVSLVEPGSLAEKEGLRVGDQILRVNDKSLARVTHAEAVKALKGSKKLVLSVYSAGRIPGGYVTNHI
# Target: T1, PDZD2_2, O15018
# Assay: holdup assay
# Parameters: key: below the threshold = too weak to quantify, mostly under pKd 3.1 to 4
# Details: plain residues with an end cap or a label only (N-terminal biotin on a linker: ado-ado)
row,Binder,pKd
1,"SSGSTSSSRI [ADGRG1, Q9Y653]",4.18
2,"QLAEIAESGL [ITK, Q08881]",3.68

# Target: T2, PTPN13_1, Q12923
# Assay: holdup assay
# Parameters: key: below the threshold = too weak to quantify, mostly under pKd 3.1 to 4
# Details: plain residues with an end cap or a label only (N-terminal biotin on a linker: ado-ado)
row,Binder,pKd
1,"SSGSTSSSRI [ADGRG1, Q9Y653]",below the threshold
2,"QLAEIAESGL [ITK, Q08881]",below the threshold

# Target: T3, GRIP1_2, Q9Y3R0
# Assay: holdup assay
# Parameters: key: below the threshold = too weak to quantify, mostly under pKd 3.1 to 4
# Details: plain residues with an end cap or a label only (N-terminal biotin on a linker: ado-ado)
row,Binder,pKd
1,"SSGSTSSSRI [ADGRG1, Q9Y653]",below the threshold
2,"QLAEIAESGL [ITK, Q08881]",below the threshold

# Target: T4, PCLO, Q9Y6V0
# Assay: holdup assay
# Parameters: key: below the threshold = too weak to quantify, mostly under pKd 3.1 to 4
# Details: plain residues with an end cap or a label only (N-terminal biotin on a linker: ado-ado)
row,Binder,pKd
1,"SSGSTSSSRI [ADGRG1, Q9Y653]",below the threshold
2,"QLAEIAESGL [ITK, Q08881]",below the threshold

# Target: CASK, O14936
# Sequence (O14936 487-570): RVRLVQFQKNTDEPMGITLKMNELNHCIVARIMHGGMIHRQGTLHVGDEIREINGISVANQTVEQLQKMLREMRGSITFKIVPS
# Assay: holdup assay
# Parameters: key: below the threshold = too weak to quantify, mostly under pKd 3.1 to 4
# Details: plain residues with an end cap or a label only (N-terminal biotin on a linker: ado-ado)
row,Binder,pKd
1,"SSGSTSSSRI [ADGRG1, Q9Y653]",below the threshold
2,"QLAEIAESGL [ITK, Q08881]",below the threshold

# Target: T5, DFNB31_2, Q9P202
# Assay: holdup assay
# Parameters: key: below the threshold = too weak to quantify, mostly under pKd 3.1 to 4
# Details: plain residues with an end cap or a label only (N-terminal biotin on a linker: ado-ado)
row,Binder,pKd
1,"SSGSTSSSRI [ADGRG1, Q9Y653]",below the threshold
2,"QLAEIAESGL [ITK, Q08881]",below the threshold

# Target: DLG5_1, Q8TDM6
# Sequence (Q8TDM6 617-713): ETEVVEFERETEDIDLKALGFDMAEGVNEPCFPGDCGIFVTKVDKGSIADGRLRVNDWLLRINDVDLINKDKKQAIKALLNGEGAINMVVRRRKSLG
# Assay: holdup assay
# Parameters: key: below the threshold = too weak to quantify, mostly under pKd 3.1 to 4
# Details: plain residues with an end cap or a label only (N-terminal biotin on a linker: ado-ado)
row,Binder,pKd
1,"SSGSTSSSRI [ADGRG1, Q9Y653]",below the threshold
2,"QLAEIAESGL [ITK, Q08881]",3.78

# Target: T6, LRRC7, Q96NW7
# Assay: holdup assay
# Parameters: key: below the threshold = too weak to quantify, mostly under pKd 3.1 to 4
# Details: plain residues with an end cap or a label only (N-terminal biotin on a linker: ado-ado)
row,Binder,pKd
1,"SSGSTSSSRI [ADGRG1, Q9Y653]",below the threshold
2,"QLAEIAESGL [ITK, Q08881]",below the threshold

# Target: T7, SYNJ2BP, P57105
# Assay: holdup assay
# Parameters: key: below the threshold = too weak to quantify, mostly under pKd 3.1 to 4
# Details: plain residues with an end cap or a label only (N-terminal biotin on a linker: ado-ado)
row,Binder,pKd
1,"SSGSTSSSRI [ADGRG1, Q9Y653]",below the threshold
2,"QLAEIAESGL [ITK, Q08881]",3.84

# Target: T8, SNTG1, Q9NSN8
# Assay: holdup assay
# Parameters: key: below the threshold = too weak to quantify, mostly under pKd 3.1 to 4
# Details: plain residues with an end cap or a label only (N-terminal biotin on a linker: ado-ado)
row,Binder,pKd
1,"SSGSTSSSRI [ADGRG1, Q9Y653]",below the threshold
2,"QLAEIAESGL [ITK, Q08881]",3.72

# Target: T9, TIAM2, Q8IVF5
# Assay: holdup assay
# Parameters: key: below the threshold = too weak to quantify, mostly under pKd 3.1 to 4
# Details: plain residues with an end cap or a label only (N-terminal biotin on a linker: ado-ado)
row,Binder,pKd
1,"SSGSTSSSRI [ADGRG1, Q9Y653]",3.82
2,"QLAEIAESGL [ITK, Q08881]",below the threshold

# Target: FRMPD2_3, Q68DX3
# Sequence (Q68DX3 1073-1166): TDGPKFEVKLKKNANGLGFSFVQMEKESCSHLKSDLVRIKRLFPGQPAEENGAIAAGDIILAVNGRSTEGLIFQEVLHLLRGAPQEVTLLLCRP
# Assay: holdup assay
# Parameters: key: below the threshold = too weak to quantify, mostly under pKd 3.1 to 4
# Details: plain residues with an end cap or a label only (N-terminal biotin on a linker: ado-ado)
row,Binder,pKd
1,"SSGSTSSSRI [ADGRG1, Q9Y653]",below the threshold
2,"QLAEIAESGL [ITK, Q08881]",below the threshold

# Target: GRIP2_6, Q9C0E4
# Sequence (Q9C0E4 648-740): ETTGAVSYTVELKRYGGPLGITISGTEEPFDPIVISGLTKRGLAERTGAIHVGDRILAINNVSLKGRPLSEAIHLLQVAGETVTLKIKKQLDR
# Assay: holdup assay
# Parameters: key: below the threshold = too weak to quantify, mostly under pKd 3.1 to 4
# Details: plain residues with an end cap or a label only (N-terminal biotin on a linker: ado-ado)
row,Binder,pKd
1,"SSGSTSSSRI [ADGRG1, Q9Y653]",below the threshold
2,"QLAEIAESGL [ITK, Q08881]",3.48

# Target: T10, FRMPD1, Q5SYB0
# Assay: holdup assay
# Parameters: key: below the threshold = too weak to quantify, mostly under pKd 3.1 to 4
# Details: plain residues with an end cap or a label only (N-terminal biotin on a linker: ado-ado)
row,Binder,pKd
1,"SSGSTSSSRI [ADGRG1, Q9Y653]",below the threshold
2,"QLAEIAESGL [ITK, Q08881]",below the threshold

# Target: GIPC2, Q8TF65
# Sequence (Q8TF65 112-203): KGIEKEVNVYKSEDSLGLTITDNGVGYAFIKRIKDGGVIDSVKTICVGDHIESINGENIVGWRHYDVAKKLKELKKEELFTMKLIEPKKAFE
# Assay: holdup assay
# Parameters: key: below the threshold = too weak to quantify, mostly under pKd 3.1 to 4
# Details: plain residues with an end cap or a label only (N-terminal biotin on a linker: ado-ado)
row,Binder,pKd
1,"SSGSTSSSRI [ADGRG1, Q9Y653]",below the threshold
2,"QLAEIAESGL [ITK, Q08881]",3.63

# Target: T11, PDZRN3_1, Q9UPQ7
# Assay: holdup assay
# Parameters: key: below the threshold = too weak to quantify, mostly under pKd 3.1 to 4
# Details: plain residues with an end cap or a label only (N-terminal biotin on a linker: ado-ado)
row,Binder,pKd
1,"SSGSTSSSRI [ADGRG1, Q9Y653]",below the threshold
2,"QLAEIAESGL [ITK, Q08881]",3.89

# Target: T12, MPP2, Q14168
# Assay: holdup assay
# Parameters: key: below the threshold = too weak to quantify, mostly under pKd 3.1 to 4
# Details: plain residues with an end cap or a label only (N-terminal biotin on a linker: ado-ado)
row,Binder,pKd
1,"SSGSTSSSRI [ADGRG1, Q9Y653]",below the threshold
2,"QLAEIAESGL [ITK, Q08881]",below the threshold

# Target: MAGI1_2, Q96QZ7
# Sequence (Q96QZ7 456-580): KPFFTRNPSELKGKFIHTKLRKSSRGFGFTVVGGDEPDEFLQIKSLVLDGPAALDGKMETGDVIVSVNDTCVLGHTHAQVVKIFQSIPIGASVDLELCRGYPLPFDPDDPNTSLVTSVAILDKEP
# Assay: holdup assay
# Parameters: key: below the threshold = too weak to quantify, mostly under pKd 3.1 to 4
# Details: plain residues with an end cap or a label only (N-terminal biotin on a linker: ado-ado)
row,Binder,pKd
1,"SSGSTSSSRI [ADGRG1, Q9Y653]",below the threshold
2,"QLAEIAESGL [ITK, Q08881]",below the threshold

# Target: Inadl_3, Q8NI35
# Sequence (Q8NI35 359-469): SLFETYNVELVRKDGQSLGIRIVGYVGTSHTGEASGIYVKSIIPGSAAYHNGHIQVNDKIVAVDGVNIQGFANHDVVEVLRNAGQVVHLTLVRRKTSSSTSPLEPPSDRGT
# Assay: holdup assay
# Parameters: key: below the threshold = too weak to quantify, mostly under pKd 3.1 to 4
# Details: plain residues with an end cap or a label only (N-terminal biotin on a linker: ado-ado)
row,Binder,pKd
1,"SSGSTSSSRI [ADGRG1, Q9Y653]",below the threshold
2,"QLAEIAESGL [ITK, Q08881]",below the threshold

# Target: T13, TX1BP3, O14907
# Assay: holdup assay
# Parameters: key: below the threshold = too weak to quantify, mostly under pKd 3.1 to 4
# Details: plain residues with an end cap or a label only (N-terminal biotin on a linker: ado-ado)
row,Binder,pKd
1,"SSGSTSSSRI [ADGRG1, Q9Y653]",below the threshold
2,"QLAEIAESGL [ITK, Q08881]",below the threshold

# Target: T14, DFNB31_1, Q9P202
# Assay: holdup assay
# Parameters: key: below the threshold = too weak to quantify, mostly under pKd 3.1 to 4
# Details: plain residues with an end cap or a label only (N-terminal biotin on a linker: ado-ado)
row,Binder,pKd
1,"SSGSTSSSRI [ADGRG1, Q9Y653]",4.27
2,"QLAEIAESGL [ITK, Q08881]",3.97

# Target: SNX27, Q96L92
# Assay: holdup assay
# Parameters: key: below the threshold = too weak to quantify, mostly under pKd 3.1 to 4
# Details: plain residues with an end cap or a label only (N-terminal biotin on a linker: ado-ado)
row,Binder,pKd
1,"SSGSTSSSRI [ADGRG1, Q9Y653]",3.56
2,"QLAEIAESGL [ITK, Q08881]",5.4

# Target: FRMPD4, Q14CM0
# Sequence (Q14CM0 67-160): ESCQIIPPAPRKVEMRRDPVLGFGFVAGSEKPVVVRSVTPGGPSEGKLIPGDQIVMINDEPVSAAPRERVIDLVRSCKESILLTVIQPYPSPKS
# Assay: holdup assay
# Parameters: key: below the threshold = too weak to quantify, mostly under pKd 3.1 to 4
# Details: plain residues with an end cap or a label only (N-terminal biotin on a linker: ado-ado)
row,Binder,pKd
1,"SSGSTSSSRI [ADGRG1, Q9Y653]",below the threshold
2,"QLAEIAESGL [ITK, Q08881]",3.71
